Source: the nanobody polyreactivity screen of Harvey et al. (2022)

Assay: yeast display, Sf9 membrane polyspecificity reagent, FACS + sequencing; frameworks hold sequencing errors
Summary of the method: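 In a synthetic yeast display library (Saccharomyces cerevisiae BJ5465), nanobody expression was induced with galactose for 36–48 hours. FACS gates were set low and high (top ~1%) using anti-HA fluorescence for expression and streptavidin fluorescence for binding of the Sf9 membrane reagent. Each polyreactivity label is drawn from the gate of origin.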

Row | Sequence | polyreactivity (PSR sort gate)
1 | QVQLVESGGGLVQAGGSLRLSCAASGSITGLNAMGWYRHAPGKERELVAAIYRSGGRTYNADSVKGRFTISRDNAKNTVYLQMISLKPEDTAVYYCAAVTTWRLDYWGQGTQVTVSS | high polyreactivity
2 | QVQLVESGGGLVQAGGSLRLSCAASGSIVHGYTMGWYRQEPGKERELVAAINSGDGSTYADSVKGRFPISRDNAKNTVYLQMNSLKPEDTAVYYCAADDSTLADGGDYWGQGTQVTVSS | low polyreactivity
3 | QVQLVESGGGLVQAGGSLRLSCAASGSIVIINAMGWYRQAPGKERELVASMTRNGGSTYYADSVKGRFTISRDNPKNTVEFQMNSLKPDDTAVYYCAATYYRFPSLIAYVRYDYWGQGTQVTVSS | high polyreactivity
4 | QVQLVESGGGLVQAGGSLRLSCAASGSIVPVYAMGWYRQAPGKEREFVAGINTIGGSTYYADSVKGRFTISRDNAKNTVYLQMNSLKPEDTAVYYCAATQYWNMYSWGQGTQVTVSS | low polyreactivity
5 | QVQLVESGGGLVQAGGSLRLSCAASGSIVSGYAMRWYRQAPGKQRELVAAISRGGSTNYADSVKGRFTISRDNAKNTVYLQMNSLKPEDTAVYYCANTPTKYHYAFGYWGQCTQVTVSS | low polyreactivity
6 | QVQLVESGGGLVQAGGSLRLSCAASGSIVSVYAMGWSRQAPGKEREWVAAISGRGGRTYYADSVKGRFTISRDNAKNTVYLQMNSLKPVDTAVYYCAARYPRYRYVEYGYNYWGQGTQVTVSS | high polyreactivity
7 | QVQLVESGGGLVQAGGSLRLSCAASGSIWRNAMGWYRQAPGKERELVAGITRRSGSTYYADSVKGRFTISRDNAKYTVYLQMNSLKPEDTAVYYCARVVVGGDDYWGQGTQVTVSS | high polyreactivity
8 | QVQLVESGGGLVQAGGSLRLSCAASGSIYARNAMGWYRQAPGKERELVAAIRYSGGSTYYADSVKGRFTISRDNAKNTVYLQMNSLKPEDTAVYYCAARWGVFGYYYWGQVTQVTVSS | high polyreactivity
9 | QVQLVESGGGLVQAGGSLRLSCAASGSIYGYNAMGWYRQAPGKEREFVAAISWSGGRTYYADSVKGRFTISRDTAKNTVYLQMNSLNPEDTAVYYCAAPSRPAPRFDYWGQGTQVTVSS | low polyreactivity
10 | QVQLVESGGGLVQAGGSLRLSCAASGSIYGYTMGWNRQAPWKERELVAAINRRADRTYYADSVKGRFTISRDNAKNTVYLQMNSLKPEDTAVYYCNKGGWYTLGYWGQGTQVTVSS | high polyreactivity
11 | QVQLVESGGGLVQAGGSLRLSCAASGSIYNKNAMGWNRQAPGKERELVAAINQSGGGTYYADSVKGRFTISRDNAKNTVYLQMNSLKPEDTAVYYCAAQVWAGIRYYHMYYWGQGTQVTVSS | low polyreactivity
12 | QVQLVESGGGLVQAGGSLRLSCAASGSIYRYAMGWYRQAPGKERELVAAINFNGGRTYYADSVKGRFTISRDNAKNTVYIQMNSLKPEDTAVYYCAAVRSSNQGGFDYWGQGTQVTVSS | high polyreactivity
13 | QVQLVESGGGLVQAGGSLRLSCAASGSIYTSNAMGWYRQAPGKERELVAVITWRSGRTYYADSVKGRFTISRDNAMNTVYLQMNSLKPEDTAVYYCDALRYPKQKFDSWGQGTQVTVSS | high polyreactivity
14 | QVQLVESGGGLVQAGGSLRLSCAASGSIYVNTMGWYRQAPGKEREFVAAITRRGGSTYYADSVKGRFTISRDNAKNTVYLQMNSLKPEDTAVYYCNADNRYSAHDYWGQGTQVTVSS | high polyreactivity
15 | QVQLVESGGGLVQAGGSLRLSCAASGSIYYFNAMGWYRQAPGKERELVASITSGGSTNYADSVKGRFTLSRDNAKNTVYLQMNSLNPEDTAVYYCNARFPYLSRWLVRGLASYDYWGQGTQVTVSS | low polyreactivity
16 | QVQLVESGGGLVQAGGSLRLSCAASGSLFEWYAMGWSRQAPGKEREFVADITYNGGSTYYADSVKGRFTISRDNAKNTVYLHMNSLKPEDTAVYYCAADYFVQVPDYYYPSEYGYWGQGTQVTVSS | low polyreactivity
17 | QVQLVESGGGLVQAGGSLRLSCAASGSLFNYYAMAWSRTAPGKERELVAGITTSGGSTYYAESVKGRFRISRDNAKNTVYLQMNSLKPEDTAVYYCAAYDYISSTYFLDDYWGQGTQVTVSS | low polyreactivity
